Blank lines part the entries; values can stand above or below the binder they belong to.
Target: acetylcholine receptor
Assay: SPR, receptor on CM5 chip, peptide 10 µM

Binding affinity (RU): 122 RU
B1: 6mer-1-103 (peptide)
peptide: RKRICK

Binding affinity (RU): 148 RU
B2: 6mer-1-123 (peptide)
peptide: RRGVQK

Binding affinity (RU): 139 RU
B3: 6mer-1-108 (peptide)
peptide: RRLLLR

Binding affinity (RU): 153 RU
B4: 6mer-1-114 (peptide)
peptide: RRQITK

Binding affinity (RU): 121 RU
B5: 6mer-1-110 (peptide)
peptide: KRQLLK

Binding affinity (RU): 154 RU
B6: 6mer-1-476 (peptide)
peptide: KRRRQK

Binding affinity (RU): 127 RU
B7: 6mer-1-118 (peptide)
peptide: RKLQLR

Binding affinity (RU): 153 RU
B8: 6mer-1-132 (peptide)
peptide: RRQVYR

Binding affinity (RU): 142 RU
B9: 6mer-1-472 (peptide)
peptide: KRQRCK

Binding affinity (RU): 154 RU
B10: 6mer-1-473 (peptide)
peptide: KKVLSK

Binding affinity (RU): 147 RU
B11: 6mer-1-127 (peptide)
peptide: KRVIYR

Binding affinity (RU): 121 RU
B12: 6mer-1-480 (peptide)
peptide: KKQFYK

Binding affinity (RU): 121 RU
B13: 6mer-1-474 (peptide)
peptide: KRLFSK

Binding affinity (RU): 142 RU
B14: 6mer-1-101 (peptide)
peptide: KRWLYR

Binding affinity (RU): 146 RU
B15: 6mer-1-100 (peptide)
peptide: RKWISK

Binding affinity (RU): 149 RU
B16: 6mer-1-106 (peptide)
peptide: KRGQLK

Binding affinity (RU): 145 RU
B17: 6mer-1-477 (peptide)
peptide: KRQQTK

Binding affinity (RU): 133 RU
B18: 6mer-1-482 (peptide)
peptide: RKQVRK

Binding affinity (RU): 139 RU
B19: 6mer-1-469 (peptide)
peptide: KKLIYR

Binding affinity (RU): 148 RU
B20: 6mer-1-470 (peptide)
peptide: KKWVYR

Binding affinity (RU): 154 RU
B21: 6mer-1-133 (peptide)
peptide: RKRFLR

Binding affinity (RU): 136 RU
B22: 6mer-1-99 (peptide)
peptide: RKVVYR

Binding affinity (RU): 139 RU
B23: 6mer-1-478 (peptide)
peptide: RKVRYK

Binding affinity (RU): 148 RU
B24: 6mer-1-121 (peptide)
peptide: KRRYTK

Binding affinity (RU): 131 RU
B25: 6mer-1-107 (peptide)
peptide: KKQRSR

Binding affinity (RU): 142 RU
B26: 6mer-1-130 (peptide)
peptide: RKQVLR

Binding affinity (RU): 142 RU
B27: 6mer-1-131 (peptide)
peptide: KRGIQR

Binding affinity (RU): 148 RU
B28: 6mer-1-126 (peptide)
peptide: KKWIQR

Binding affinity (RU): 142 RU
B29: 6mer-1-117 (peptide)
peptide: KRLFTR

Binding affinity (RU): 154 RU
B30: 6mer-1-484 (peptide)
peptide: KKLYLR

Binding affinity (RU): 148 RU
B31: 6mer-1-112 (peptide)
peptide: KKWVCR

Binding affinity (RU): 139 RU
B32: 6mer-1-116 (peptide)
peptide: RKVRCK

Binding affinity (RU): 123 RU
B33: 6mer-1-471 (peptide)
peptide: KKWRCK

Binding affinity (RU): 141 RU
B34: 6mer-1-105 (peptide)
peptide: KKSISK

Binding affinity (RU): 133 RU
B35: 6mer-1-481 (peptide)
peptide: KRWRCK

Binding affinity (RU): 127 RU
B36: 6mer-1-102 (peptide)
peptide: RRRYRR

Binding affinity (RU): 121 RU
B37: 6mer-1-129 (peptide)
peptide: RRRQSK

Binding affinity (RU): 133 RU
B38: 6mer-1-115 (peptide)
peptide: RRSLSR

Binding affinity (RU): 148 RU
B39: 6mer-1-109 (peptide)
peptide: KKRYLR

Binding affinity (RU): 137 RU
B40: 6mer-1-124 (peptide)
peptide: KRVQQK

Binding affinity (RU): 121 RU
B41: 6mer-1-104 (peptide)
peptide: KRGFSK

Binding affinity (RU): 144 RU
B42: 6mer-1-111 (peptide)
peptide: RKVICR

Binding affinity (RU): 153 RU
B43: 6mer-1-468 (peptide)
peptide: RRLYRR

Binding affinity (RU): 148 RU
B44: 6mer-1-475 (peptide)
peptide: RKLQTK

Binding affinity (RU): 126 RU
B45: 6mer-1-128 (peptide)
peptide: RKQFYR

Binding affinity (RU): 154 RU
B46: 6mer-1-98 (peptide)
peptide: KRLQCR

Binding affinity (RU): 151 RU
B47: 6mer-1-483 (peptide)
peptide: KRQVTK

Binding affinity (RU): 139 RU
B48: 6mer-1-122 (peptide)
peptide: KKLIRK

Binding affinity (RU): 133 RU
B49: 6mer-1-119 (peptide)
peptide: KRLQTR

Binding affinity (RU): 148 RU
B50: 6mer-1-113 (peptide)
peptide: KRGVQK

Binding affinity (RU): 123 RU
B51: 6mer-1-135 (peptide)
peptide: KRQVSR

Binding affinity (RU): 124 RU
B52: 6mer-1-120 (peptide)
peptide: RRRYSR

Binding affinity (RU): 128 RU
B53: 6mer-1-134 (peptide)
peptide: KKSIYR

Binding affinity (RU): 135 RU
B54: 6mer-1-479 (peptide)
peptide: RRSLTR

Binding affinity (RU): 126 RU
B55: 6mer-1-485 (peptide)
peptide: RRWYRR

Binding affinity (RU): 135 RU
B56: 6mer-1-125 (peptide)
peptide: KRRLCR

— patent US20250011363A1, “OPTIMIZED SHORTENED PEPTIDE THAT BINDS TO ACETYLCHOLINE RECEPTOR, AND USE THEREOF” (SKINMED CO., LTD., priority 2021, published 2025)
